Laboratory results published in patent US20260022175A1 (Chugai, published 2026).
Substitutions are numbered along the chain they refer to. Names and notes keep the numbering of the source. Like-named read-outs stand apart in the source and are kept apart here. One block for each binder: values may come before it.

Tests used:
human FcRn [1] = target: T1, human FcRn (human, UniProt P55899 24-290; P61769 21-119); assay: SPR Biacore T200, captured Ab, pH 6.0, steady state
T1 construct: Prepared by the method of WO 2010/107110; also called hFcRn

[2] = target: T2, human FcγRIa extracellular domain with C-terminal His-tag (human, UniProt P12314 16-292); assay: SPR Biacore T200, captured Ab, pH 7.4
T2 construct: extracellular domain; also called hFcγR Ia; hFcγRIa
T2 sequence (P12314 16-292): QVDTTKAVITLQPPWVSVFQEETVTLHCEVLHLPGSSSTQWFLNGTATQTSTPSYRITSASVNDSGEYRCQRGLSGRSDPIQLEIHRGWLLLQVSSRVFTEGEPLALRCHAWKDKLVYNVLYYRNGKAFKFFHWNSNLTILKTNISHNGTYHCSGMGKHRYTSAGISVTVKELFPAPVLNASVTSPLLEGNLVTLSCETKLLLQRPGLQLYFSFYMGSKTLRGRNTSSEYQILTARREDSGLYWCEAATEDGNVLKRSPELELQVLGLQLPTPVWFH

[3] = target: T3, human FcγRIIIa V allotype extracellular domain with C-terminal His-tag (human, UniProt P08637 17-208); assay: SPR Biacore T200, captured Ab, pH 7.4
T3 construct: extracellular domain; also called hFcγR IIIa V
T3 sequence (P08637 17-208 F176V): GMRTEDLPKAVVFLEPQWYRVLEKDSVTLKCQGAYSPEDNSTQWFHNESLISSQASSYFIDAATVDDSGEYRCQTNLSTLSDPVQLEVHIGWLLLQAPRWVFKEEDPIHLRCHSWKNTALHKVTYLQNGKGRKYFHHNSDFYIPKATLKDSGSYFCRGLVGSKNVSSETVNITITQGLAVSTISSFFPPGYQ

[4] = target: T4, human FcγRIIa R allotype extracellular domain with C-terminal His-tag (human, UniProt P12318 34-217); assay: SPR Biacore T200, captured Ab, pH 7.4
T4 construct: extracellular domain; also called hFcγR IIa R
T4 sequence (looked up): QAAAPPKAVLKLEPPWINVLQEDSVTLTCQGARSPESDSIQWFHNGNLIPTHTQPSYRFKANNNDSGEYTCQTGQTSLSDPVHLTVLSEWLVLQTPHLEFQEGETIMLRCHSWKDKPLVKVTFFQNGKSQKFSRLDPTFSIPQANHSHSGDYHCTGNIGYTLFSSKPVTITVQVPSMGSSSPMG

[5] = target: T5, human FcγRIIIa F allotype extracellular domain with C-terminal His-tag (human, UniProt P08637 17-208); assay: SPR Biacore T200, captured Ab, pH 7.4
T5 construct: extracellular domain; also called hFcγR IIIa F
T5 sequence (P08637 17-208): as the sequence (P08637 17-208 F176V) above, with V160F counted along it

[6] = target: T6, human FcγRIIa H allotype extracellular domain with C-terminal His-tag (human, UniProt P12318 34-217); assay: SPR Biacore T200, captured Ab, pH 7.4
T6 construct: extracellular domain; also called hFcγR IIa H
T6 sequence (looked up): T4 sequence (looked up) with R134H

[7] = target: T7, human FcγRIIb extracellular domain with C-terminal His-tag (human, UniProt P31994 43-217); assay: SPR; binding amount divided by that of 04H1389-G1m/04L1305-k0MT
T7 construct: extracellular domain; also called hFcγR IIb
T7 sequence (looked up): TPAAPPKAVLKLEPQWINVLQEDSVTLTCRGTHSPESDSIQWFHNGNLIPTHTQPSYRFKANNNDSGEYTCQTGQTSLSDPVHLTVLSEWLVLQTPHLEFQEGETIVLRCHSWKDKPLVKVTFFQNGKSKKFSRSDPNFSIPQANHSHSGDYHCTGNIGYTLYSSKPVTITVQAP

[8] = target: T7, human FcγRIIb extracellular domain with …; assay: SPR; FcγRIIb bound amount per unit captured Ab
[9] = target: T2, human FcγRIa extracellular domain with …; assay: SPR; KD of 04H1389-G1m/04L1305-k0MT divided by KD of variant
[10] = target: T3, human FcγRIIIa V allotype extracellular …; assay: as above
[11] = target: T4, human FcγRIIa R allotype extracellular …; assay: as above
human FcRn [12] = target: T1, human FcRn; assay: as above
[13] = target: T5, human FcγRIIIa F allotype extracellular …; assay: as above
[14] = target: T6, human FcγRIIa H allotype extracellular …; assay: as above
[15] = target: T2, human FcγRIa extracellular domain with …; assay: SPR; KD of 04H1656-G1m/04L1610-lam1 divided by KD of variant
[16] = target: T3, human FcγRIIIa V allotype extracellular …; assay: as above
[17] = target: T4, human FcγRIIa R allotype extracellular …; assay: as above
human FcRn [18] = target: T1, human FcRn; assay: as above
[19] = target: T5, human FcγRIIIa F allotype extracellular …; assay: as above
[20] = target: T6, human FcγRIIa H allotype extracellular …; assay: as above
[21] = target: T7, human FcγRIIb extracellular domain with …; assay: SPR; binding amount divided by that of 04H1656-G1m/04L1610-lam1
human FcRn [22] = target: T1, human FcRn; assay: SPR Biacore T200, captured Ab, pH 6.0, steady state; remark: listed apart in the source
Description: The interaction between the generated antibodies and human FcRn was analyzed by the following method using Biacore T200. 50 mM Na-Phosphate, 150 mM NaCl, 0.05% Tween20 (pH 6.0) was used as the running buffer, and the assay was performed at 25° C. For the sensor chip, Series S SA (GE Healthcare) chips onto which CaptureSelect Human Fab-lambda Kinetics Biotin Conjugate (Thermo Fisher Scientific) was immobilized were used. The antibodies of interest were captured onto these chips and FcRn diluted in the running buffer was allowed to interact with them. Chips were regenerated with 10 mM Glycine-HCl (pH 1.5) and 25 mM NaOH, and assay was performed by repeatedly capturing antibodies. The dissociation constant for FcRn of each antibody was calculated using the steady state model, using Biacore T200 Evaluation Software 2.0.

[23] = target: T7, human FcγRIIb extracellular domain with …; assay: SPR; FcγRIIb bound amount per unit captured Ab; remark: listed apart in the source
Description: (§1) The interaction between the generated antibodies and human FcγRs was analyzed by the following method using Biacore T200. 50 mM Na-Phosphate, 150 mM NaCl, 0.05% Tween20 (pH 7.4) was used as the running buffer, and the assay was performed at 25° C. For the sensor chips, Series S SA (GE Healthcare) chips onto which CaptureSelect Human Fab-lambda Kinetics Biotin Conjugate (Thermo Fisher Scientific) was immobilized were used. The antibodies of interest were captured onto these chips and each FcγR diluted in the running buffer was allowed to interact with them. Chips were regenerated with 10 mM Glycine-HCl (pH 1.5) and 25 mM NaOH, and assay was performed by repeatedly capturing antibodies. The dissociation constants KD (mol/L) for FcγRs of each antibody were calculated using Biacore T200 Evaluation Software 2.0, using the 1:1 Langmuir binding model for FcγRIa and FcγRIIIa and the steady state affinity model for FcγRIIa. For FcγRIIb, the binding amount of FcγRIIb per unit amount of antibody was calculated by correcting the binding amount of FcγRIIb obtained from the sensorgram obtained by the measurement with the amount of antibody captured onto the chip surface.

[24] = target: T2, human FcγRIa extracellular domain with …; assay: SPR Biacore T200, captured Ab, pH 7.4; remark: listed apart in the source
Description: as §1

[25] = target: T3, human FcγRIIIa V allotype extracellular …; assay: SPR Biacore T200, captured Ab, pH 7.4; remark: listed apart in the source
Description: as §1

[26] = target: T4, human FcγRIIa R allotype extracellular …; assay: SPR Biacore T200, captured Ab, pH 7.4; remark: listed apart in the source
Description: as §1

[27] = target: T5, human FcγRIIIa F allotype extracellular …; assay: SPR Biacore T200, captured Ab, pH 7.4; remark: listed apart in the source
Description: as §1

[28] = target: T6, human FcγRIIa H allotype extracellular …; assay: SPR Biacore T200, captured Ab, pH 7.4; remark: listed apart in the source
Description: as §1

Kd (human FcRn [1]): 330 nM
Kd [2]: 0.15 nM
Kd [3]: 3.9 nM
Kd [4]: 160 nM
Kd [5]: 17 nM
Kd [6]: 53 nM
Relative binding amount [7]: 1.3
Binding amount [8]: 0.015
Relative value to KD between G1m and hFcγRs [9]: 0.5
Relative value to KD between G1m and hFcγRs [10]: 225
Relative value to KD between G1m and hFcγRs [11]: 9.7
Relative value to KD between G1m and hFcRn (human FcRn [12]): 3
Relative value to KD between G1m and hFcγRs [13]: 41.3
Relative value to KD between G1m and hFcγRs [14]: 20
B1: 04H1389-Km473/04L1305-k0MT//04H1389-Hm451/04L1305-k0MT (antibody)
heavy 1: EVQLVESGGGLVKPGGSLRLSCAASGFTFSSKTMNWVRQAPGKGLEWVSSISTQSHYIYYAESVKGRFTISRDNAKNSLYLQMNSLRAEDTAVYYCARYGKREDMLWVFDYWGQGTLVTVSSASTKGPSVFPLAPSSKSTSGGTAALGCLVKDYFPEPVTVSWNSGALTSGVHTFPAVLQSSGLYSLSSVVTVPSSSLGTQTYICNVNHKPSNTKVDKRVEPKSCDKTHTCPPCPAPEFQWGPMVFLFPPKPKDVLMISRTPEVTCVVVDVSDEEPEVKFNWYVDGVEVHNAKTKPREEQYNATYRVVSVLPVLHQDWLNGKEYKCKVSNDALPAPIEKTISKAKGQPREPQVCTLPPSREEMTKNQVSLWCLVKGFYPSDIAVEWESNGQPENNYKTTPPVLDSDGSFFLYSKLTVDKSRWQQGNVFSCSVMHEALHAHTTRKELSLSP
heavy 2: EVQLVESGGGLVKPGGSLRLSCAASGFTFSSKTMNWVRQAPGKGLEWVSSISTQSHYIYYAESVKGRFTISRDNAKNSLYLQMNSLRAEDTAVYYCARYGKREDMLWVFDYWGQGTLVTVSSASTKGPSVFPLAPSSKSTSGGTAALGCLVKDYFPEPVTVSWNSGALTSGVHTFPAVLQSSGLYSLSSVVTVPSSSLGTQTYICNVNHKPSNTKVDKRVEPKSCDKTHTCPPCPAPELLAGPSVFLFPPKPKDVLMISRTPEVTCVVVDVSHEEPEVKFNWYVDGVEVHNAKTKPREEQYNATYRVVSVLPVLHQDWLNGKEYKCKVSNDALPAPIEETISKAKGQPREPQVYTLPPSRCEMTKNQVSLSCAVKGFYPSDIAVEWESNGQPENNYKTTPPVLDSDGSFFLVSKLTVDKSRWQQGNVFSCSVMHEALHAHTTRKELSLSP
light: DIVMTQSPLSLPVTPGEPASISCDGPSTGVGDYNYVHWYQQKPGQAPRLLIYFTSKKPSGVPDRFSGSGSGTDFTLKISRVEAEDVGVYYCQTYAAPLGPMFGQGTKLEIKRTVAAPSVFIFPPSDEQLKSGTASVVCLLNNFYPREAKVQWKVDNALQSGNSQESVTEQDSKDSTYSLSSTLTLSKADYEKHKVYACEVTHQGLSSPVTKSFNRGEC
notes: Heterodimerized antibody; also called SW1389-ART5+ACT1

Kd (human FcRn [1]): 370 nM
Kd [2]: 0.061 nM
Kd [3]: 0.95 nM
Kd [4]: 86 nM
Kd [5]: 2.7 nM
Kd [6]: 35 nM
Relative binding amount [7]: 3
Binding amount [8]: 0.034
Relative value to KD between G1m and hFcγRs [9]: 1.1
Relative value to KD between G1m and hFcγRs [10]: 930
Relative value to KD between G1m and hFcγRs [11]: 18.5
Relative value to KD between G1m and hFcRn (human FcRn [12]): 2.7
Relative value to KD between G1m and hFcγRs [13]: 258
Relative value to KD between G1m and hFcγRs [14]: 30.8
B2: 04H1389-Km473/04L1305-k0MT//04H1389-Hm482/04L1305-k0MT (antibody)
heavy 1: B1 heavy 1
heavy 2: B1 heavy 2 with A335K, I337D
light: B1 light
notes: Heterodimerized antibody; also called SW1389-ART6+ACT1

Relative value to KD between G1m and hFcγRs [15]: 0.8
Relative value to KD between G1m and hFcγRs [16]: 218
Relative value to KD between G1m and hFcγRs [17]: 9
Relative value to KD between G1m and hFcRn (human FcRn [18]): 0.9
Relative value to KD between G1m and hFcγRs [19]: 58.1
Relative value to KD between G1m and hFcγRs [20]: 13.5
Relative binding amount [21]: 1.7
Kd (human FcRn [22]): 2000 nM
Binding amount [23]: 0.014
Kd [24]: 0.12 nM
Kd [25]: 4.4 nM
Kd [26]: 180 nM
Kd [27]: 17 nM
Kd [28]: 99 nM
B3: 04H1654-KT462/04L1610-lam1//04H1656-HT441/04L1610-lam1 (antibody, human IgG1, lambda)
heavy 1: QVQLVESGGGVVQPGGSLRLSCAASGFTFSSKTMNWVRQAPGKGLEWVSSISTQSHYIYYARSVRGRFTISRDNAKNSLYLQMNSLRAEDTAVYYCARYGKREDMLWVFDYWGQGTLVTVSSASTKGPSVFPLAPSSKSTSGGTAALGCLVKDYFPEPVTVSWNSGALTSGVHTFPAVLQSSGLYSLSSVVTVPSSSLGTQTYICNVNHKPSNTKVDKRVEPKSCDKTHTCPPCPAPEFQWGPMVFLFPPKPKDVLMISRTPEVTCVVVDVSDEEPEVKFNWYVDGVEVHNAKTKPREEQYNATYRVVSVLPVLHQDWLNGKEYKCKVSNDALPAPIEKTISKAKGQPREPQVYTLPPSRKEMTKNQVSLTCLVKGFYPSDIAVEWESNGQPENNYKTTPPVLDSDGSFFLYSKLTVDKSRWQQGNVFSCSVMHEALHNHYTQKSLSLSP
heavy 2: B3 heavy 1 with R62E, K101A, F239L, Q240L, W241A, M244S, D273H, K339E, K361E, K444E
light: QSALTQPPSASGSPGQSVTISCEGPSTGVGDYNWVHWYQQHPGKAPKLMIYFTSKKPSGVPDRFSGSKSGNTASLTVSGLQAEDEADYYCQTYAAPLGPMFGGGTKLTVLGQPKAAPSVTLFPPSSEELQANKATLVCLISDFYPGAVTVAWKADSSPVKAGVETTTPSKQSNNKYAASSYLSLTPEQWKSHRSYSCQVTHEGSTVEKTVAPTECS
notes: Heterodimerized antibody

Relative value to KD between G1m and hFcγRs [15]: 0.6
Relative value to KD between G1m and hFcγRs [16]: 190
Relative value to KD between G1m and hFcγRs [17]: 8.9
Relative value to KD between G1m and hFcRn (human FcRn [18]): 3.2
Relative value to KD between G1m and hFcγRs [19]: 50.8
Relative value to KD between G1m and hFcγRs [20]: 14.5
Relative binding amount [21]: 1.5
Kd (human FcRn [22]): 540 nM
Binding amount [23]: 0.012
Kd [24]: 0.14 nM
Kd [25]: 5.1 nM
Kd [26]: 180 nM
Kd [27]: 20 nM
Kd [28]: 92 nM
B4: 04H1654-KT473/04L1610-lam1//04H1656-HT451/04L1610-lam1 (antibody)
heavy 1: B3 heavy 1 with N439A, Y441T, Q443R, S445E
heavy 2: B1 heavy 2 with E1Q, L11V, K13Q, K65R, K101A, C361E, S371T, A373L, V412Y, K444E
light: B3 light
notes: Heterodimerized antibody with N434A/Y436T/Q438R/S440E; also called SW1610-ART5+ACT1
